From PMC5886543, “A staphylococcal anti-sigma factor possesses a single-domain, carries different denaturant-sensitive regions and unfolds via two intermediates” (PLoS ONE, 2018) come the findings set out here.

The stoichiometry N is a count of units in the complex or per binding partner.

The data set concerns the molecule itself. In words: cross-linking; rRsbW 10 uM in buffer B (20 mM phosphate pH 8.0, 100 mM NaCl, 5% glycerol), 0.1% glutaraldehyde, 2 min, 25 C; SDS-13.5% PAGE; no denaturant.

B1: rRsbW, a recombinant S. aureus RsbW (enzyme, Staphylococcus aureus Newman, UniProt A6QIR1 1-159, looked up)
chain: MQSKEDFIEMRVPASAEYVSLIRLTLSGVFSRAGATYDDIEDAKIAVSEAVTNAVKHAYKENNNVGIINIYFEILEDKIKIVISDKGDSFDYETTKSKIGPYDKDENIDFLREGGLGLFLIESLMDEVTVYKESGVTISMTKYIKKEQVRNNGERVEIS
notes: RsbW of Staphylococcus aureus Newman, UniProt A6QIR1; 480 bp insert amplified from genomic DNA with primers rsbWF (begins at the ATG) and rsbWR; native RsbW 17.92 kDa, rRsbW 21.74 kDa. numbers count on: rRsbW with its 36 N-terminal extra residues (RsbW residue 1 is rRsbW residue 37); Surmised: the 36 extra residues are those that pET28a adds before its EcoRI site; also called anti-sigma factor; …
In the case of B1, the “stoichiometry N” value is 2.
